Experimental data published in article PMC10407929, “Determining DNA–Protein Binding Affinities and Specificities from Crude Lysates Using a Combined SILAC/TMT Labeling Strategy”.
Values joined by “and” are separate entries in the source; they are usually repeats but may differ in a detail not shown here. Identical values can stand only once.

Key:
Experiment in all cases: pulldown; 150 mM NaCl, 50 mM Tris pH 8.0, 0.25% NP-40, 1 mM DTT; 4 C, 2 h; 100 ug nuclear extract
Details in all cases: protein: extract; label: 5' biotin (strand 1)
[1] = target: KLF12 (Homo sapiens, UniProt Q9Y4X4)
Chain of KLF12 (Q9Y4X4 whole entry): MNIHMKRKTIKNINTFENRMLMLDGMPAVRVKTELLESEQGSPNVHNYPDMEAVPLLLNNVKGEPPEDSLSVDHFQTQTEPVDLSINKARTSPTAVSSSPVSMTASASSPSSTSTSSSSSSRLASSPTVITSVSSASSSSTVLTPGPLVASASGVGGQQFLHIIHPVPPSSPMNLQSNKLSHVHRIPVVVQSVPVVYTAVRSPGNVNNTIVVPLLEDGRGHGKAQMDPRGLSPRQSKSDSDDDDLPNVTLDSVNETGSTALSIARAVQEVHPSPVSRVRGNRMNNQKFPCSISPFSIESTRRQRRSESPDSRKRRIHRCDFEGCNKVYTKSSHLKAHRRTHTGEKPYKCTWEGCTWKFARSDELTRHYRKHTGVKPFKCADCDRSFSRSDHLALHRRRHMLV

[2] = target: T1, MAZ (Homo sapiens, UniProt P56270)
T1 sequence: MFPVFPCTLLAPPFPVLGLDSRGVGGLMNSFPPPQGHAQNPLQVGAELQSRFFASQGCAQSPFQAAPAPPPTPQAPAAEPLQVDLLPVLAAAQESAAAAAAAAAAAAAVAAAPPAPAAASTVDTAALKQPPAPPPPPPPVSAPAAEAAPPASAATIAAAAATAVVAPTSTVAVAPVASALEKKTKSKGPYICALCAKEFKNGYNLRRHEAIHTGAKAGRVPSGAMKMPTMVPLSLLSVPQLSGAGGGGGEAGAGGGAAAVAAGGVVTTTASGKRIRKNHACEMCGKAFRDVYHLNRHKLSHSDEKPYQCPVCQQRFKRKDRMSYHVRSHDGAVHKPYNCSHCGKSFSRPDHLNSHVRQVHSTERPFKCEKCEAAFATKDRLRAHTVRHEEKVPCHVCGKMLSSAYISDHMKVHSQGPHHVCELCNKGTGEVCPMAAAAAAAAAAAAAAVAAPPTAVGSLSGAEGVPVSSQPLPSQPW

[3] = target: T2, BEND3 (Homo sapiens, UniProt Q5T5X7)
T2 sequence: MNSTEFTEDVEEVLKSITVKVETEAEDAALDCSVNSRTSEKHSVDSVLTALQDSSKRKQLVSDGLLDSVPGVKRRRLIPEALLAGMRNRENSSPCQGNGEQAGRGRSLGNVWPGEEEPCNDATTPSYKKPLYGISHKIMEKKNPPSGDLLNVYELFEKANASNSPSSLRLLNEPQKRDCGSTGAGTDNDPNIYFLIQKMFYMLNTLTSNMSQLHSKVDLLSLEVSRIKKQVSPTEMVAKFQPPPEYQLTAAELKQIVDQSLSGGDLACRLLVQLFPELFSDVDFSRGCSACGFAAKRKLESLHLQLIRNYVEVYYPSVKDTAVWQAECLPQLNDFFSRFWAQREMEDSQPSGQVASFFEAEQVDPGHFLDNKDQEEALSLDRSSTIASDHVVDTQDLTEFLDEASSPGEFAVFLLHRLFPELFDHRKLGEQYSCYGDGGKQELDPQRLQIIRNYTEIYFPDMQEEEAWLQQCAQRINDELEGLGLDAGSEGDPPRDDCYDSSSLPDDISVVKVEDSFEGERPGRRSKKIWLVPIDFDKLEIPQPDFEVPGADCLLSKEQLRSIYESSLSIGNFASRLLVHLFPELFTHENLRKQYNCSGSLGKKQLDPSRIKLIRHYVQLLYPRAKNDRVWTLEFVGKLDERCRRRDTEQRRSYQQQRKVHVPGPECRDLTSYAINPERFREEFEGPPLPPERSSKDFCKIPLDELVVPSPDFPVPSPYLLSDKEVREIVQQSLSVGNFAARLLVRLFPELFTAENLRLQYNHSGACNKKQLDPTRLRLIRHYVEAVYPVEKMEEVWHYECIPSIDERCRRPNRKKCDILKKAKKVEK

[4] = target: KLF5 (Homo sapiens, UniProt Q13887)
Chain of KLF5 (Q13887 whole entry): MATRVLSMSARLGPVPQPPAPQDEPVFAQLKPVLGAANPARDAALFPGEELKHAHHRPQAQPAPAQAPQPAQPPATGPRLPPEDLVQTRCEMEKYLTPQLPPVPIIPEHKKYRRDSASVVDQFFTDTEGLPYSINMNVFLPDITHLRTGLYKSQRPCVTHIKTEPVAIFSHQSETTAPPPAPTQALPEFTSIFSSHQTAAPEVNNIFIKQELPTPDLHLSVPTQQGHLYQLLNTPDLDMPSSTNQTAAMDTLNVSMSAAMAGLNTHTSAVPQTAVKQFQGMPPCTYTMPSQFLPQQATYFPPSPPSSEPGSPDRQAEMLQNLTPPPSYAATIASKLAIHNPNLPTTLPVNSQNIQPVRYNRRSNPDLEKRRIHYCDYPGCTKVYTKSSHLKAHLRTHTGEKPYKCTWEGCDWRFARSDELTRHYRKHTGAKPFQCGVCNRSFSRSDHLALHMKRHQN

[5] = target: T3, VEZF1 (Homo sapiens, UniProt Q14119)
T3 sequence: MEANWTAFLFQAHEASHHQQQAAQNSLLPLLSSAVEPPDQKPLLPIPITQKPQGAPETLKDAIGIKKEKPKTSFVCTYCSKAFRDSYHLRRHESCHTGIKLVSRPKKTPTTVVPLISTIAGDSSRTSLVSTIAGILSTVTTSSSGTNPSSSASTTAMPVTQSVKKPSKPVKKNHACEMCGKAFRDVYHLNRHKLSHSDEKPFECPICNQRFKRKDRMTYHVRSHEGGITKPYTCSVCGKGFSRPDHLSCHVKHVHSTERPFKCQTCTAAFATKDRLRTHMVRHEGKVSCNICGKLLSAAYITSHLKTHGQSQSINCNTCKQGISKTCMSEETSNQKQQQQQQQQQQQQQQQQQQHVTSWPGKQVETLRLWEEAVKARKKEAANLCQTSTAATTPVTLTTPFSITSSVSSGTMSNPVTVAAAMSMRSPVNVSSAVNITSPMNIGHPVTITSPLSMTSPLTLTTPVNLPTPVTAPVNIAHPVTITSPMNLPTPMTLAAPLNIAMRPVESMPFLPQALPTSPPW

[6] = target: SP1 (Homo sapiens, UniProt P08047)
Chain of SP1 (P08047 whole entry): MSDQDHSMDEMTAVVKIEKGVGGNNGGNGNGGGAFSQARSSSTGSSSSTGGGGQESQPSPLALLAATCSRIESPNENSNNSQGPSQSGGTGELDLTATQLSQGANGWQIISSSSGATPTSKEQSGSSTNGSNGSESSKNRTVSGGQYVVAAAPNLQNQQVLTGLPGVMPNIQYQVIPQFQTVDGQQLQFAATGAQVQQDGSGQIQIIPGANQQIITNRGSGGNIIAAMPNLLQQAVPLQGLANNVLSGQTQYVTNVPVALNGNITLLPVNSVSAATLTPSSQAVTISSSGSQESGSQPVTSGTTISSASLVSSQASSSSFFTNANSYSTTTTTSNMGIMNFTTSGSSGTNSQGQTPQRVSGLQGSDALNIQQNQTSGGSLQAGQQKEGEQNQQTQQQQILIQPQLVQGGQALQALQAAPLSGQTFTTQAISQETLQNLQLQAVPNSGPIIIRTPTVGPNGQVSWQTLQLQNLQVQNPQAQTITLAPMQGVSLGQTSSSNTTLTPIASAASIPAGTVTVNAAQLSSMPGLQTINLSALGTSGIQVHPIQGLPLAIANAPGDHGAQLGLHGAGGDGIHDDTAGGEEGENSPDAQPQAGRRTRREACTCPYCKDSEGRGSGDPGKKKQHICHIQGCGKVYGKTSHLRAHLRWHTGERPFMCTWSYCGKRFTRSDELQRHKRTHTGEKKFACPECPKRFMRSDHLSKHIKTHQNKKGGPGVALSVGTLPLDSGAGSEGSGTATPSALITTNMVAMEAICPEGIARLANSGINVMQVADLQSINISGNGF

[7] = target: KLF1 (Homo sapiens, UniProt Q13351)
Chain of KLF1 (Q13351 whole entry): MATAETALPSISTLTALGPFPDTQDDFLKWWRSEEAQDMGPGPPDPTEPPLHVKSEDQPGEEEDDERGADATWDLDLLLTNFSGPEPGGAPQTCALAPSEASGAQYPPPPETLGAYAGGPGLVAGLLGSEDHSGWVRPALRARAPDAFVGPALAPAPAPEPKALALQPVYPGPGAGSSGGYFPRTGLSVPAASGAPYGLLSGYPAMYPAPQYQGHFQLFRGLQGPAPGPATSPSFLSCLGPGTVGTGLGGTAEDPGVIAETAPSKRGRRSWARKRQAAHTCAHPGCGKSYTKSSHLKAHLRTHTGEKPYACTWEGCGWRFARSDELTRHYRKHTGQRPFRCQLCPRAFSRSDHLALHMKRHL

[8] = target: T4, BANP (Homo sapiens, UniProt Q8N9N5)
T4 sequence: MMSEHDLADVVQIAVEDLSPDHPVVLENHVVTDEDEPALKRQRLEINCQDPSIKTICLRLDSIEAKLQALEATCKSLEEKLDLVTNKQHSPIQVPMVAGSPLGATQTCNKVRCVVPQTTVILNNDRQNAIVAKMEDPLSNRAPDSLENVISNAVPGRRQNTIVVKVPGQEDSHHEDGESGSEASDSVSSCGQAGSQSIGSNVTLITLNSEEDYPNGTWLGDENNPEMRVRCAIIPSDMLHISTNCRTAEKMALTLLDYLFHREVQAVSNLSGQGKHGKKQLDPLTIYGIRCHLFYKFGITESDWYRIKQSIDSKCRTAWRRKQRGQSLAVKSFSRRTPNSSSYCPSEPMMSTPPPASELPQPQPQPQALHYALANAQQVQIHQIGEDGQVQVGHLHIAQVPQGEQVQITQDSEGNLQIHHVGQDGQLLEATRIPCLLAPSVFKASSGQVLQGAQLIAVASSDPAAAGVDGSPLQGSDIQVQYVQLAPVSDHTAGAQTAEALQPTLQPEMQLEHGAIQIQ

[9] = target: HOXB9 (Homo sapiens, UniProt P17482)
Chain of HOXB9 (P17482 whole entry): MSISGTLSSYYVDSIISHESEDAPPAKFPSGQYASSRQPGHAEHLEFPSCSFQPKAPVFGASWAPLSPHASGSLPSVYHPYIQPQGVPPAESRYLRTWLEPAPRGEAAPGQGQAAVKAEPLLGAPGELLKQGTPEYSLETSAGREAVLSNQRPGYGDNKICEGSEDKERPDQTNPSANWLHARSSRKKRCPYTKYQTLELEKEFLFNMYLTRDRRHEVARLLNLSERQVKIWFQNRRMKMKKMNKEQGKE

[10] = target: T5, MAZ (Homo sapiens, UniProt P56270); remark: listed apart in the source
T5 sequence: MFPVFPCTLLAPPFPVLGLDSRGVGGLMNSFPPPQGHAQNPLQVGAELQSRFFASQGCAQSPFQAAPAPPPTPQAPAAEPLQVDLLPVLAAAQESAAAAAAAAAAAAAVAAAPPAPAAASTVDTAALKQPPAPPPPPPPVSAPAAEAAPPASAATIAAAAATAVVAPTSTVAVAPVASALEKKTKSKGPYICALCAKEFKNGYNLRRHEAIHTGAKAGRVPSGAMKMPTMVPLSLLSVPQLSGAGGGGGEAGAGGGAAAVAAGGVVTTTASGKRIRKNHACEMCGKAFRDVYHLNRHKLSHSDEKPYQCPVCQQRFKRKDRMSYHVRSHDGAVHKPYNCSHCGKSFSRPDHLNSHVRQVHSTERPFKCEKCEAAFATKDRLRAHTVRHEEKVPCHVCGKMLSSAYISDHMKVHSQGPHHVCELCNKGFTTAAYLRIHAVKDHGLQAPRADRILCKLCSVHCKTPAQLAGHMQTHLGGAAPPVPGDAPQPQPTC

[11] = target: SP3 (Homo sapiens, UniProt Q02447)
Chain of SP3 (Q02447 whole entry): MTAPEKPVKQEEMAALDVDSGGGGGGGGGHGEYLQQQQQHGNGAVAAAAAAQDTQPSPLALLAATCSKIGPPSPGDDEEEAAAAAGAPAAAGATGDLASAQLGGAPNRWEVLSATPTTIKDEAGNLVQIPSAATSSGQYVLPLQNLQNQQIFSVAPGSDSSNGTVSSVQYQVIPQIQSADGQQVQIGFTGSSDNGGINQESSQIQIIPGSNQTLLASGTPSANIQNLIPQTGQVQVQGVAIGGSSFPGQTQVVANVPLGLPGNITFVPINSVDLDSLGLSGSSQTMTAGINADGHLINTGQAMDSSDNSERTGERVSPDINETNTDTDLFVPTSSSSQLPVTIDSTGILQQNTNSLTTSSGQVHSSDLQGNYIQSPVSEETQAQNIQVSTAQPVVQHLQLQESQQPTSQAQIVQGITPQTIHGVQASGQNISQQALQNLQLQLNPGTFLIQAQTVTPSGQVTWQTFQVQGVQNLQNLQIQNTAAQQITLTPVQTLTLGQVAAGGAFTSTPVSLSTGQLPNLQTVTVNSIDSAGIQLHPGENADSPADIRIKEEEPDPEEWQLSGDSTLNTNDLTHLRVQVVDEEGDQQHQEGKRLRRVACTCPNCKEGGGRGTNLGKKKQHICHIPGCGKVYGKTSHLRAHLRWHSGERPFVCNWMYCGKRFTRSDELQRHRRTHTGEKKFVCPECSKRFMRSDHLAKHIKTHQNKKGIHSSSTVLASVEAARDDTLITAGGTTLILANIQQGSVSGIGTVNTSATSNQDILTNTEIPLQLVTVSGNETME

[12] = target: TFAP2A (Homo sapiens, UniProt P05549)
Chain of TFAP2A (P05549 whole entry): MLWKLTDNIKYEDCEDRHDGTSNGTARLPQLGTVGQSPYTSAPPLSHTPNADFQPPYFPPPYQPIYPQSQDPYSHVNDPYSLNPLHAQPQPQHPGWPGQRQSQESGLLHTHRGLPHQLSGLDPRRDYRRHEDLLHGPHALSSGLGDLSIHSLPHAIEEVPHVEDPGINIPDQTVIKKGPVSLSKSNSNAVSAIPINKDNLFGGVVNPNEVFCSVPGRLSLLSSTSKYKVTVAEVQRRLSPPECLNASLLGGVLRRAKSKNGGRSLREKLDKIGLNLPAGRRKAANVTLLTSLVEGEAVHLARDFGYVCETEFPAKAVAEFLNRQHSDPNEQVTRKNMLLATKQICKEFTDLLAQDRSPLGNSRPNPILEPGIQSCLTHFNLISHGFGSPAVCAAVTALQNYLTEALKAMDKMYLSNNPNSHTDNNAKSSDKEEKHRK

[13] = target: T6, ZNF148 (Homo sapiens, UniProt Q9UQR1)
T6 sequence: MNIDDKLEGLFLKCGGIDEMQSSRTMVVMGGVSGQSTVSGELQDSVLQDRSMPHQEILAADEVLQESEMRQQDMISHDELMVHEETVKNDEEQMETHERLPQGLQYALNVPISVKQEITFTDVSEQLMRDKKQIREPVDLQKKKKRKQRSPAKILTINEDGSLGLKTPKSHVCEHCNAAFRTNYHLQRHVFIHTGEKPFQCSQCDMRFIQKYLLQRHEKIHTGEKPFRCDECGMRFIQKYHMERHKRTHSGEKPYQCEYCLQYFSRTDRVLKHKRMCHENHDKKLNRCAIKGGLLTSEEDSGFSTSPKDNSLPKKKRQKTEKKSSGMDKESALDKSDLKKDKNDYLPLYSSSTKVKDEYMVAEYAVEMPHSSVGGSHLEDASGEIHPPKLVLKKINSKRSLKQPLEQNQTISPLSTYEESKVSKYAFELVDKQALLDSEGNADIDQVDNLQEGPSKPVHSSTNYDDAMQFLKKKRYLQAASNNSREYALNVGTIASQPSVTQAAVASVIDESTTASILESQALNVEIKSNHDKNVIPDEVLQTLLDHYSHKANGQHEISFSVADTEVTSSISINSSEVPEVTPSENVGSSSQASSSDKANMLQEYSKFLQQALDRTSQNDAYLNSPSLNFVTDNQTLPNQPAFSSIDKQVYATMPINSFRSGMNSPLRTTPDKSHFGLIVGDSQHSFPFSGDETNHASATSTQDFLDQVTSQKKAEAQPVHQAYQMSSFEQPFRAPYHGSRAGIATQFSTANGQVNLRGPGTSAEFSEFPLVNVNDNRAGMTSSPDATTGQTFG

B1: BEND3 bait (dsDNA)
DNA 1: GCCGCCGCCCTCCCACGCGCTGCCGGGCC
DNA 2: GGCCCGGCAGCGCGTGGGAGGGCGGCGGC
B1 was tested, and the “apparent K (half saturation)” value [1] was 346 nM, the “apparent K (half saturation)” value [2] was 56.4 nM and the “apparent K (half saturation)” value [3] was 166 nM. For the same binder, the “apparent K (half saturation)” value [4] was 227 nM, the “apparent K (half saturation)” value [5] was 110 nM and the “apparent K (half saturation)” value [6] was 289 nM.

B2: SP/KLF negative control bait (dsDNA)
DNA 1: GAGAGAAAATAAAACTGGCT
DNA 2: AGCCAGTTTTATTTTCTCTC
B2 was tested, and the “apparent K (half saturation)” value [5] was greater than 1180 nM.

B3: CGCG bait (dsDNA)
DNA 1: GCCGCCGCCCTTCTCGCGAGACTGCCGGGCC
DNA 2: GGCCCGGCAGTCTCGCGAGAAGGGCGGCGGC
With B3 the “apparent K (half saturation)” value [7] was 83 nM, the “apparent K (half saturation)” value [2] was 203 nM and the “apparent K (half saturation)” value [8] was 6.9 nM and 11.3 nM. For the same binder, the “apparent K (half saturation)” value [9] was 323 nM, the “apparent K (half saturation)” value [10] was 153 nM and the “apparent K (half saturation)” value [5] was 333 nM.

B4: SP/KLF bait (dsDNA)
DNA 1: GAGAGCCCCGCCCCCTGGCT
DNA 2: AGCCAGGGGGCGGGGCTCTC
With B4 the “apparent K (half saturation)” value [11] was 6.26 nM, the “apparent K (half saturation)” value [12] was 162 nM and the “apparent K (half saturation)” value [5] was 90.4 nM. The “apparent K (half saturation)” value [13] was 54.2 nM and the “apparent K (half saturation)” value [6] was 13.8 nM.
